Reference: US20240287172A1 (SCIRHOM, published 2024)
Residue numbers refer to the chain shown, from its start.

T1: hiR2-FL-D569E-T7 (human, UniProt Q6PJF5 1-856)
T1 sequence: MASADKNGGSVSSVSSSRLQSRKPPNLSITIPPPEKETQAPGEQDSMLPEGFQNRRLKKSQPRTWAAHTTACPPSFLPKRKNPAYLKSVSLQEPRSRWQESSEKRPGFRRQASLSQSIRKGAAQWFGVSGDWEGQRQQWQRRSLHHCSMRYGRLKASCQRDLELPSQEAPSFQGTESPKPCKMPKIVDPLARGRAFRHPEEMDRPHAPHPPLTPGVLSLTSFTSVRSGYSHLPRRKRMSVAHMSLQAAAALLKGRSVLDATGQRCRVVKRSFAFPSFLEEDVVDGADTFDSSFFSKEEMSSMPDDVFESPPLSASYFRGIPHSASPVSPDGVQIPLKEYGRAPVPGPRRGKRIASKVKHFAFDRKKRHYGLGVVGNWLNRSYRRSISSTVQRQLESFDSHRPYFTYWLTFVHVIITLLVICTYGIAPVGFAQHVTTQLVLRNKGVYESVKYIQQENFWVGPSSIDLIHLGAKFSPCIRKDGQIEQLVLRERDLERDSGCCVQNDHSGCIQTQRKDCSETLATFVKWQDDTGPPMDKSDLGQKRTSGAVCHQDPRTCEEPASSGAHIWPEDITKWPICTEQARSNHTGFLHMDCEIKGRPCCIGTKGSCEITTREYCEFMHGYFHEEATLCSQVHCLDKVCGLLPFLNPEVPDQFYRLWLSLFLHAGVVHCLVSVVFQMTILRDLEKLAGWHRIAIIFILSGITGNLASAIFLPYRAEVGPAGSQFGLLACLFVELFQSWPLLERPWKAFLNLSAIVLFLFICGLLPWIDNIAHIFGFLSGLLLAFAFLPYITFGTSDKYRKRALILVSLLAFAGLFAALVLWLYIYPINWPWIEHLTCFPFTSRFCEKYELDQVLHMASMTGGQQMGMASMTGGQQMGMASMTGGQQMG

B1: antibody 48 (antibody, V domains shown)
VH: QVQLQQSGTELVRPGTSVKVSCKASGYAFTNYLIEWVKQRPGQGLEWIGVINPGSGFTKYNEKFKGKATLTADKSSSTVYMHLSSLTSEDSAVYFCARGLYRAMDYWGQGTSVTVSS
VL: DIQMTQSPASQSASLGESVTITCLASQTIATWLAWYQQKPGKSPQLLIYGATTLADGVPSRFSGGGSGTKFSFKISSLQAEDFVSYYCQQLYSTPYTFGGGTKLEIK
notes: mouse IgG, kappa light chain; also called clone #48; purified antibody 48
B2: antibody 50 (antibody, V domains shown)
VH: B1 VH with T9A, T16A, T30S, V79A, H82Q
VL: B1 VL with A30G, G50A, T52A, T53S, S85N, L91I
notes: mouse IgG, kappa light chain; also called clone #50; purified antibody 50

Target: T1, hiR2-FL-D569E-T7
Experiment: FACS, MEF-DKO cells, 3 µg/ml
How it was run: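 Binding read by flow cytometry after a PE goat anti-mouse IgG F(ab′)2 secondary (1:100, on ice, 1 h, dark). Before that, immortalized MEF-DKO lines carrying single-mutant hiR2-FL-T7 constructs were incubated 1 h on ice with 3 μg/ml antibody or FACS buffer alone.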

Binder	loss of binding vs wild type [%]
B1	≥ 30
B2	≥ 30
